Source: the supplement of paper PMC9233669
Fewer inactive variants are shown than the library holds.

Legend:
biotinyl-Val-oxazolone = assay: self-aminoacylation, catalytic enhancement (BVO) (fold over background); higher = more active; k-Seq, kA / k0A0; sequences stand for … in GGGAAUGGAUCCACAUCUACGAAUUC…UUCACUGCAGACUUGACGAAGCUG
Method in brief: (§1)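 Mutagenized RNA pools with a 21-nt variable region (0.43 μM) reacted with each biotinyl-aminoacyl-oxazolone at 2–1250 μM. Reactions ran in 50 μL HEPES/NaCl/KCl/MgCl2/CaCl2 buffer with 5% acetonitrile, pH 6.9–7.0, for 90 minutes at room temperature. Streptavidin-captured RNA was quantified by triplicate qPCR and Illumina sequencing, and per-sequence fraction reacted was fit to a pseudo-first-order model with 1000 bootstraps. Catalytic enhancement is median kA divided by the uncatalyzed rate, the low-activity peak of a bimodal Gaussian fit.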

biotinyl-Met-oxazolone = assay: self-aminoacylation, catalytic enhancement (BMO) (fold over background); higher = more active; k-Seq, kA / k0A0; sequences stand for … in GGGAAUGGAUCCACAUCUACGAAUUC…UUCACUGCAGACUUGACGAAGCUG
Method in brief: as §1

biotinyl-Leu-oxazolone = assay: self-aminoacylation, catalytic enhancement (BLO) (fold over background); higher = more active; k-Seq, kA / k0A0; sequences stand for … in GGGAAUGGAUCCACAUCUACGAAUUC…UUCACUGCAGACUUGACGAAGCUG
Method in brief: as §1

biotinyl-Phe-oxazolone = assay: self-aminoacylation, catalytic enhancement (BFO) (fold over background); higher = more active; k-Seq, kA / k0A0; sequences stand for … in GGGAAUGGAUCCACAUCUACGAAUUC…UUCACUGCAGACUUGACGAAGCUG
Method in brief: as §1

biotinyl-Trp-oxazolone = assay: self-aminoacylation, catalytic enhancement (BWO) (fold over background); higher = more active; k-Seq, kA / k0A0; sequences stand for … in GGGAAUGGAUCCACAUCUACGAAUUC…UUCACUGCAGACUUGACGAAGCUG
Method in brief: as §1

biotinyl-Ile-oxazolone = assay: self-aminoacylation, catalytic enhancement (BIO) (fold over background); higher = more active; k-Seq, kA / k0A0; sequences stand for … in GGGAAUGGAUCCACAUCUACGAAUUC…UUCACUGCAGACUUGACGAAGCUG
Method in brief: as §1

Sequence	self-aminoacylation (biotinyl-Val-oxazolone)	self-aminoacylation (biotinyl-Met-oxazolone)	self-aminoacylation (biotinyl-Leu-oxazolone)	self-aminoacylation (biotinyl-Phe-oxazolone)	self-aminoacylation (biotinyl-Trp-oxazolone)	self-aminoacylation (biotinyl-Ile-oxazolone)
AUACACCUAGGUCAUCGGGCG [Fam2.2 aminoacylation ribozyme variant]	2.18	2.8	2.58	11	2.86	
AUUCACCUAGAUCAUCGGGUA [Fam2.2 aminoacylation ribozyme variant]		2.12		5.46		
CUGCUUCAAACAAUCGGUGUG [Fam1A.1 aminoacylation ribozyme variant]		2.12	3.16	124	49.6	
CCGCACUUCAAGCCAUCGGUC [Fam1B.1 aminoacylation ribozyme variant]	2.26			2.13	2.01	
AUUACCCUGGGCAUCGAGUGU [Fam2.1 aminoacylation ribozyme variant]		2.02		2.53	2.31	
AAGCUUGCUAACAGUCGCAAG [Fam3.1 aminoacylation ribozyme variant]		2.4	2.5	3.33		
AUUCACCUAGGCCAUCGGCUG [Fam2.2 aminoacylation ribozyme variant]	2.59	2.27	2.03	10.5		
CCACACUUCAAGCAAUCGGCC [Fam1B.1 aminoacylation ribozyme variant]	2.17			4.93	4.72	
AUUACGCUGGUCAUCAAGUGA [Fam2.1 aminoacylation ribozyme variant]		2.63	2.55	2.38	3.76	
AUUCACCUACGUCAUCAGGUG [Fam2.2 aminoacylation ribozyme variant]		2.73	2.86	9.1	2.08	
CCACACGUCAAGCAAUCGGUU [Fam1B.1 aminoacylation ribozyme variant]	2.28					
AUUACCCUGGUCGUGGAGUGA [Fam2.1 aminoacylation ribozyme variant]		2.19	2.42	12.3	2.5	
CCACACUUCAAUCAAUCGGCC [Fam1B.1 aminoacylation ribozyme variant]	2.11		2.16	2.71	2.62	
AUUCAACUAGGUAAUCGGGUG [Fam2.2 aminoacylation ribozyme variant]		2.72	3.41	19	2.81	
AAGUUGGCUAAAAGUCGCAAG [Fam3.1 aminoacylation ribozyme variant]				3.1		2.01
CAACUUCAAACAAUCGGUCGG [Fam1A.1 aminoacylation ribozyme variant]		2.1	2.79	87.2	32.4	
AUUCACCGAGGUCAUCGGGAG [Fam2.2 aminoacylation ribozyme variant]		2.23		4.74		
AUUCACCUACGUCAACGGGUG [Fam2.2 aminoacylation ribozyme variant]		2.35	3.09	9.97	2.84	
AUUCACCUAGGUCAACGGGCG [Fam2.2 aminoacylation ribozyme variant]		2.85	3.24	10.4		2.59
ACGUUUGCCAAUAGUCGCAAG [Fam3.1 aminoacylation ribozyme variant]		2.04	2.16	6.32		
AUUACCCUGGUCAUCGAGAAA [Fam2.1 aminoacylation ribozyme variant]		2.8	2.97	5.05	2.58	
AUUCACGUAGGUCAUCGGGUC [Fam2.2 aminoacylation ribozyme variant]	2.28	2.19		9.36		
CCACAAUUCAAGCAAUCGGGC [Fam1B.1 aminoacylation ribozyme variant]		2.14			2.04	2.22
AUGACCCUGGUCAUCAAGUGA [Fam2.1 aminoacylation ribozyme variant]		2.4	2.28	2.74	2.06	
AUUCAGCUACGUCAUCGGGUG [Fam2.2 aminoacylation ribozyme variant]	2.02		2.71	10.1	3.07	
CCACACUUCAAGCAAGCGGUG [Fam1B.1 aminoacylation ribozyme variant]		2.45	3.19		2.4	
AAUUUUGCUAAUAGUCGCAUG [Fam3.1 aminoacylation ribozyme variant]		2.28		3.03	3.4	
